# Results reported in US20030220285A1.
# Molecular target: purified HLA-A2.1 molecules (human)
row,Substance,IC50 [nM]
1,HBV Core 18 (HBV core 18-27) peptide […] (peptide; other documents disagree on this pair),3
2,HBV Pol 551-A (native HBV pol 551-559) peptide […] (peptide; other documents disagree on this pair),200
